These are literature values, as cited in publication PMC2627783.

This data set addresses IscU (Escherichia coli) (UniProt P0ACD4). Briefly: ITC. In general terms: ITC needs no label: the signal is the heat of the interaction.

IscU (Escherichia coli), sequence (P0ACD4 whole entry): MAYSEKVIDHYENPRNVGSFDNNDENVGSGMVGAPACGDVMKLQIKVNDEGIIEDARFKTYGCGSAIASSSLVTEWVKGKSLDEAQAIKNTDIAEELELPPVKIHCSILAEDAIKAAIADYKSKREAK
HscB, sequence (P0A6L9 whole entry): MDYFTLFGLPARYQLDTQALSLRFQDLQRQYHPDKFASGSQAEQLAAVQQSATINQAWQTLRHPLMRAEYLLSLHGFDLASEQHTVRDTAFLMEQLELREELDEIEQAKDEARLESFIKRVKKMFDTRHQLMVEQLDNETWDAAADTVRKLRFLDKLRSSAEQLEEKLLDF

As for HscB (from UniProt P0A6L9), the equilibrium dissociation constant (Kd) (in general, the equilibrium constant for the complex coming apart) is 10 µM.
